Measured values published in patent publication US10391180B2, “Self-assembling complex for targeting chemical agents to cells” (CEDARS-SINAI MEDICAL CENTER, priority 2007, dated 2019).

How the values were obtained:
[1] = test system: bilateral flank tumors (HER2+); assay: In vivo tumor toxicity, tumor growth; design: species or system mice; settings: daily tail vein injections, 0.004 mg/kg Dox conc, 7 consecutive days
Method: FIGS. 12 (A)-(D) illustrates comparison of HerDox and Dox on (A) tumor growth, (B) animal weight, (C) cardiac tissue, and (D) cardiac function.
To assess in vivo tumor toxicity, mice bearing 3-4 week bilateral flank tumors began receiving daily tail vein injections of Dox or HerDox (0.004 mg/kg with respect to Dox conc), HerPBK10 alone (at equivalent protein concentration to HerDox) or saline for 7 consecutive days.

[2] = test system: MDA-MB-435 (non-GFP, HER2+) cells; assay: Targeting in a mixed cell culture; type: cell-based; settings: HerDox containing 0.5 uM Dox, day 2
Method: (§1) FIGS. 9 (A)-(C) illustrates targeting in a mixed cell culture. As illustrated in FIG. 10 (A), equal numbers of MDA-MB-435 and GFP(+) MDA-MB-231 cells were treated with Dox alone (0.5 uM), Her-Dox (containing 0.5 uM Dox), or HerPBK10 (1.2 ug/well, equivalent to HerPBK10 in HerDox). Wells were assayed for GFP fluorescence (to determine relative MDA-MB-231 number) and crystal violet staining (to determine total cell number). As illustrated in FIG. 9 (B), cell survival was determined by calculating the relative doubling time (DT) of experimental (exp) cells normalized by control (con) cells based on the crystal violet stains (total cells) and GFP fluorescence (MDA-MB-231 cells). The DT of MDA-MB-435 was determined by subtracting the DT of MDA-MB-231 from the total cell DT. Relative survival is shown for Day 2 of treatment. As illustrated in FIG. 9 (C), there is stability in cell culture. Aliquots of culture media containing HerDox (after incubation for the indicated times at 37° C.) were electrophoresed on a 2% agarose gel. HerDox incubated at 37° C. in HEPES-buffered saline, lacking serum, was processed in parallel. Dox fluorescence was visualized by UV excitation. Free Dox (Dox alone) is not retained in the gel whereas Dox incorporated in HerDox is. […]

[3] = test system: GFP(+) MDA-MB-231 (HER2−) cells; assay: Targeting in a mixed cell culture; type: cell-based; settings: HerDox containing 0.5 uM Dox, day 2
Method: as §1

HER2+ tumors = assay: HerDox vs Dox biodistribution by Dox fluorescence imaging; type: in vivo, mice
Method: FIGS. 11 (A)-(B) illustrates preferential targeting of HerDox to HER2+ tumors. Tumor-bearing mice were injected with 0.75 nmoles of HerDox or Dox via the tail vein and imaged with a custom small animal imager. FIG. 11 (A) depicts imaging of live mice after IV delivery of HerDox. Tumors are indicated by arrows. FIG. 11 (B) depicts imaging of tumors and tissues harvested at 3 h after injection of HerDox or Dox. Fluorescence signal from Dox is pseudo-colored according to the color bar, with a shift toward 100 indicating high fluorescence intensity. FIG. 11 (B) illustrates a comparison of the targeted delivery of Dox to HER2+ breast cancer cells with minimal delivery to other organs and tissues using a delivery system in accordance with an embodiment of the present invention (left panel), as compared with Dox administered alone (right panel).
Dox emits a red fluorescence upon appropriate wavelength excitation, which can be used to detect biodistribution after systemic delivery of HerDox. Mice bearing 4-week old) tumors (˜700-800 mm^3) received a single tail vein injection of Dox or HerDox ([…] with respect to Dox cone) and images of live mice captured in real time, or of organs/tissues harvested at ˜3 h postinjection were acquired using a customized macro-illumination and detection system. Fluorescence was evident throughout the body at 10 min after HerDox injection, then quickly accumulated at the tumors by 20 min and remained detectable in the tumors up to 100 min after injection (FIG. 11 (A)).

breast cancer cells = assay: HerDox trafficking, immunofluorescence against HerPBK10 in fixed cells; type: cell-based
Method: FIG. 15 illustrates HerDox trafficking in breast cancer cells. Cells incubated with HerDox at 37° C. were fixed at the indicated time points and processed for immunofluorescence using an antibody against HerPBK10. Images were captured using confocal microscopy under fluorescence and brightfield. Green, HerPBK10; Red, Dox. n, nucleus Bar, ˜8 microns.
To determine whether Dox remains attached to HerPBK10 during uptake, the inventors used immuno-fluorescence against HerPBK10. […] In fixed cells, nucleolar accumulation was not detectable as in the live cells (FIG. 14 (B)).

[4] = harvested at 3 h after injection
[5] = single tail vein injection, live imaging

B1: HerDox: non-covalent complex of HerPBK10, a small double-stranded nucleic acid and intercalated Dox (conjugate)
chain: LPPRLKEMKSQESAAGSKLVLRCETSSEYSSLRFKWFKNGNELNRKNKPQNIKIQKKPGKSELRINKASLADSGEYMCKVISKLGNDSASANITIVESNEIITGMPASTEGAYVSSESPIRISVSTEGANTSSSTSTSTTGTSHLVKCAEKEKTFCVNGGECFMVKDLSNPSRYLCKCQPGFTGARCTENVPMKVQNQEKAEELYMRRAAMYEEGPPPSYESVVSAAPVAAALGSPFDAPLDPPFVPPRYLRPTGGRNSIRYSELAPLFDTTRVYLVDNKSTDVASLNYQNDHSNFLTTVIQNNDYSPGEASTQTINLDDRSHWGGDLKTILHTNMPNVNEFMFTNKFKARVMVSRLPTKDNQVELKYEWVEFTLPEGNYSETMTIDLMNNAIVEHYLKVGRQNGVLESDIGVKFDTRNFRLGFDPVTGLVMPGVYTNEAFHPDIILLPGCGVDFTHSRLSNLLGIRKRQPFQEGFRITYDDLEGGNIPALLDVDAYQASLKDDTEQGGGGAGGSNSSGSGAEENSNAAAAAMQPVEDMNDHAIRGDTFATRAEEKRAEAEAAAEAAAPAAQPEVEKPQKKPVIKPLTEDSKKRSYNLISNDSTFTQYRSWYLAYNYGDPQTGIRSWTLLCTPDVTCGSEQVYWSLPDMMQDPVTFRSTRQISNFPVVGAELLPVHSKSFYNDQAVYSQLIRQFTSLTHVFNRFPENQILARPPAPTITTVSENVPALTDHGTLPLRNSIGGVQRVTITDARRRTCPYVYKALGIVSPRVLSSRTFKKKKKKKKKK
modifications: left off: small tags and cut ends
notes: non-covalent complex of HerPBK10, a small double-stranded nucleic acid and intercalated Dox
tumor growth [1]: essentially prevented tumor growth
non-GFP (HER2+) cell proliferation in mixed culture [2]: nearly completely reduced
GFP (HER2−) cell growth in mixed culture [3]: not altered
Dox fluorescence in heart, spleen, lungs, and skeletal muscle (HER2+ tumors; [4]): did not exhibit any fluorescence
Dox fluorescence in kidneys (HER2+ tumors; [4]): barely detectable
Dox fluorescence in liver (HER2+ tumors; [4]): substantially lower levels of fluorescence
Dox fluorescence in tumors (HER2+ tumors; [4]): intense fluorescence
time by which fluorescence accumulated at the tumors (HER2+ tumors; [5]): ≤ 20 min
time fluorescence remained detectable in the tumors (HER2+ tumors; [5]): up to 100 min
location of Dox and HerPBK10 during uptake (breast cancer cells; 30 and 60 min): increasing levels of Dox accumulate in the nucleus while the majority of HerPBK10 remains in the cytoplasm
integrity of HerDox during uptake (colocalization of HerPBK10 and Dox) (breast cancer cells; 15 min of uptake): still intact
